# Reference: doi:10.1101/323055
# Molecular target: TmFtsH_(184,513), double Cys variant of His6-(Δtm)TmFtsH(147–610) (Thermotoga maritima) (UniProt Q9WZ49)
substance,measurement,value
"TmFtsH_(184,513), double Cys variant of His6-(Δtm)TmFtsH(147–610) (from UniProt Q9WZ49 147-610) (enzyme)",Kd,400 nM
